# Measured values published in US10047131B2, “Peptides and combination of peptides for use in immunotherapy against ovarian cancer and other cancers” (immatics biotechnologies GmbH, priority 2015, dated 2018).
# Target: HLA-A*02:01 (Homo sapiens, UniProt P04439, D140Y/D185E/D98H/E176V/E277Q/G131W/G231S/I119V/I121R/I166T/I218V/L300P/L318F/N151K/N90K/P208A/P217A/Q86G/Q94H/R138H/R169H/T345S)
# Experiment: MHC binding assay (UV-ligand exchange, ELISA of exchange yield)
# Details: binding to HLA-A*02:01, UV-ligand exchange
# Excerpt: Candidate peptides for T cell based therapies according to the present invention were further tested for their MHC binding capacity (affinity). The individual peptide-MHC complexes were produced by UV-ligand exchange, where a UV-sensitive peptide is cleaved upon UV-irradiation, and exchanged with the peptide of interest as analyzed. Only peptide candidates that can effectively bind and stabilize the peptide-receptive MHC molecules prevent dissociation of the MHC complexes. To determine the yield of the exchange reaction, an ELISA was performed based on the detection of the light chain (p2m) of stabilized MHC complexes. The assay was performed as generally described in Rodenko et al. (Rodenko et al., 2006).
# 96 well MAXISorp plates (NUNC) were coated over night with 2 μg/ml streptavidin in PBS at room temperature, washed 4× and blocked for 1 h at 37° C. in 2% BSA containing blocking buffer. […] Peptide-MHC monomers of the UV-exchange reaction were diluted 100 fold in blocking buffer. Samples were incubated for 1h at 37° C., washed four times, incubated with 2 μg/ml HRP conjugated anti-β2m for 1h at 37° C., washed again and detected with TMB solution that is stopped with […]. Absorption was measured at 450 nm. Candidate peptides that show a high exchange yield (preferably higher than 50%, most preferred higher than 75%) are generally preferred for a generation and production of antibodies or fragments thereof, and/or T cell receptors or fragments thereof, as they show sufficient avidity to the MHC molecules and prevent dissociation of the MHC complexes.
row,Substance,"Peptide exchange (MHC class I binding score, peptide exchange yield)"
1,553 (SLLNQDLHWSL; listed as Homo sapiens) [compound 553],“++++” (≥75% = ++++)
2,91 (IMQDFPAEIFL; listed as Homo sapiens) [compound 91],“++++” (≥75% = ++++)
3,34 (ILVEADSLWVV; listed as Homo sapiens) [compound 34],“+++” (≥50 = +++)
4,208 (KISPVTFSV; listed as Homo sapiens) [compound 208],“+++” (≥50 = +++)
5,51 (LLPDLEFYV; listed as Homo sapiens) [compound 51],“++++” (≥75% = ++++)
6,606 (ALWETEVYI; listed as Homo sapiens) [compound 606],“+++” (≥50 = +++)
7,64 (YAAPGGLIGV; listed as Homo sapiens) [compound 64],“++” (≥20% = ++)
8,497 (GLLEKLTAI; listed as Homo sapiens) [compound 497],“+++” (≥50 = +++)
9,31 (YLAPELFVNV; listed as Homo sapiens) [compound 31],“++” (≥20% = ++)
10,233 (VLSETLYEL; listed as Homo sapiens) [compound 233],“++” (≥20% = ++)
11,442 (GLLGGGGVLGV; listed as Homo sapiens) [compound 442],“+++” (≥50 = +++)
12,100 (YLLSTNAQL; listed as Homo sapiens) [compound 100],“++++” (≥75% = ++++)
13,5 (HLTEVYPEL; listed as Homo sapiens) [compound 5],“+++” (≥50 = +++)
14,374 (FLLQQHLISA; listed as Homo sapiens) [compound 374],“++” (≥20% = ++)
15,431 (SLVNVVPKL; listed as Homo sapiens) [compound 431],“++” (≥20% = ++)
16,272 (ALGNTVPAV; listed as Homo sapiens) [compound 272],“+++” (≥50 = +++)
17,125 (VQIHQVAQV; listed as Homo sapiens) [compound 125],“+++” (≥50 = +++)
18,443 (GLWEIENNPTV; listed as Homo sapiens) [compound 443],“+++” (≥50 = +++)
19,130 (FLWNGEDSALL; listed as Homo sapiens) [compound 130],“+++” (≥50 = +++)
20,24 (SLSDGLEEV; listed as Homo sapiens) [compound 24],“++” (≥20% = ++)
21,350 (ALLDVTHSELTV; listed as Homo sapiens) [compound 350],“+++” (≥50 = +++)

row,Substance,"Peptide exchange (MHC class I binding score, peptide exchange yield)"
1,287 (FLNEFFLNV; listed as Homo sapiens) [compound 287],“+++” (≥50 = +++)
2,136 (YLADPSNLFVV; listed as Homo sapiens) [compound 136],“+++” (≥50 = +++)
3,236 (GLLEAKVSL; listed as Homo sapiens) [compound 236],“+++” (≥50 = +++)
4,250 (ALSEEGLLVYL; listed as Homo sapiens) [compound 250],“+++” (≥50 = +++)
5,93 (LLQAIKLYL; listed as Homo sapiens) [compound 93],“++” (≥20% = ++)
6,295 (VLDRESPNV; listed as Homo sapiens) [compound 295],“+++” (≥50 = +++)
7,229 (RLPGPLGTV; listed as Homo sapiens) [compound 229],“++” (≥20% = ++)
8,348 (ILLDVKTRL; listed as Homo sapiens) [compound 348],“++++” (≥75% = ++++)
9,366 (RLLDMGETDLML; listed as Homo sapiens) [compound 366],“+++” (≥50 = +++)
10,214 (FLLDLDPLLL; listed as Homo sapiens) [compound 214],“+++” (≥50 = +++)
11,357 (SMHDLVLQV; listed as Homo sapiens) [compound 357],“+++” (≥50 = +++)
12,157 (SLNDEVPEV; listed as Homo sapiens) [compound 157],“++” (≥20% = ++)
13,598 (FLFPHSVLV; listed as Homo sapiens) [compound 598],“+++” (≥50 = +++)
14,143 (LLLDITPEI; listed as Homo sapiens) [compound 143],“++++” (≥75% = ++++)
15,595 (VLLSIYPRV; listed as Homo sapiens) [compound 595],“+++” (≥50 = +++)
16,494 (ALQPEPIKV; listed as Homo sapiens) [compound 494],“++” (≥20% = ++)
17,608 (SLLSVSHAL; listed as Homo sapiens) [compound 608],“+++” (≥50 = +++)
18,391 (YVYPQRLNFV; listed as Homo sapiens) [compound 391],“+++” (≥50 = +++)
19,261 (YVLEFLEEI; listed as Homo sapiens) [compound 261],“++” (≥20% = ++)
20,615 (VLPPDTDPA; listed as Homo sapiens) [compound 615],“++” (≥20% = ++)
21,264 (SLQEQLHSV; listed as Homo sapiens) [compound 264],“+++” (≥50 = +++)

row,Substance,"Peptide exchange (MHC class I binding score, peptide exchange yield)"
1,339 (GLWEIENNPTVKA; listed as Homo sapiens) [compound 339],“++++” (≥75% = ++++)
2,154 (ALDDGTPAL; listed as Homo sapiens) [compound 154],“++” (≥20% = ++)
3,252 (LLIGTDVSL; listed as Homo sapiens) [compound 252],“+++” (≥50 = +++)
4,523 (YQIPRTFTL; listed as Homo sapiens) [compound 523],“++” (≥20% = ++)
5,204 (KIAENVEEV; listed as Homo sapiens) [compound 204],“++” (≥20% = ++)
6,296 (FMEGAIIYV; listed as Homo sapiens) [compound 296],“+++” (≥50 = +++)
7,444 (GLLRDEALAEV; listed as Homo sapiens) [compound 444],“+++” (≥50 = +++)
8,477 (ALLPASGQIAL; listed as Homo sapiens) [compound 477],“+++” (≥50 = +++)
9,490 (FLLQHVQEL; listed as Homo sapiens) [compound 490],“+++” (≥50 = +++)
10,363 (KVLDVSDLESV; listed as Homo sapiens) [compound 363],“++” (≥20% = ++)
11,332 (YLISELEAA; listed as Homo sapiens) [compound 332],“+++” (≥50 = +++)
12,217 (ALIHPVSTV; listed as Homo sapiens) [compound 217],“++” (≥20% = ++)
13,38 (FLLEDDIHVS; listed as Homo sapiens) [compound 38],“+++” (≥50 = +++)
14,21 (VLDELDMEL; listed as Homo sapiens) [compound 21],“++” (≥20% = ++)
15,2 (SLLEADPFL; listed as Homo sapiens) [compound 2],“+++” (≥50 = +++)
16,457 (SLLPGNLVEKV; listed as Homo sapiens) [compound 457],“+++” (≥50 = +++)
17,501 (LLDPNVKSIFV; listed as Homo sapiens) [compound 501],“+++” (≥50 = +++)
18,57 (TLAELQPPVQL; listed as Homo sapiens) [compound 57],“+++” (≥50 = +++)
19,246 (LLWEVVSQL; listed as Homo sapiens) [compound 246],“+++” (≥50 = +++)
20,280 (VLPDPEVLEAV; listed as Homo sapiens) [compound 280],“+++” (≥50 = +++)
